Measured values published in PMC8287928.

B1: MSA4 (structured_DNA)
DNA: TTACGTCAAGGTGTCACTCCTGTGGGCGGGGGCGGTTGATTGTATTACTGTCGGGAGGGGGAAGCATCTCTTTGGCGTG
B2: MSA6 (structured_DNA)
DNA: TTACGTCAAGGTGTCACTCCTCGGGGGGGTTTGGCACTGGGCCTGGCAGTACCGGGTCGCGAAGCATCTCTTTGGCGTG
B3: MSA3 (structured_DNA)
DNA: TTACGTCAAGGTGTCACTCCTACAGCGTCTGGTTGGTTTGGTTGGATCTTCGATCGCTGTGAAGCATCTCTTTGGCGTG
B4: MSA10 (structured_DNA)
DNA: TTACGTCAAGGTGTCACTCCGCGGGTTTGGCTCCGGGCCTGGCGTTGCGGTCTGCTCCCCGAAGCATCTCTTTGGCGTG
B5: MSA1 (structured_DNA)
DNA: TTACGTCAAGGTGTCACTCCCACTTTCCGGTTAATTTATGCTCTACCCGTCCACCTACCGGAAGCATCTCTTTGGCGTG
B6: MSA9 (structured_DNA)
DNA: TTACGTCAAGGTGTCACTCCTTCGTGTGGGTGGGGTCCTAACTTTCCTGTCGGGGTCGGGGAAGCATCTCTTTGGCGTG
B7: MSA8 (structured_DNA)
DNA: TTACGTCAAGGTGTCACTCCATGTGGGTGGGGGTCATTCTTCAGTGTCGGGAGGGGGTGGAAGCATCTCTTTGGCGTG
B8: MSA2 (structured_DNA)
DNA: TTACGTCAAGGTGTCACTCCTCAGTGGGAGGGGGTCCATGTCTTGTCGGGGTCGGGGGTGGAAGCATCTCTTTGGCGTG
B9: MSA5 (structured_DNA)
DNA: TTACGTCAAGGTGTCACTCCACGGGTTTGGCGTCGGGCCTGGCGGGGGGATAGTGCGGTGGAAGCATCTCTTTGGCGTG
B10: MSA7 (structured_DNA)
DNA: TTACGTCAAGGTGTCACTCCTGGCTGTGGGGTTCGGGGTCACTATTTGTCGGGAGGGGAGGAAGCATCTCTTTGGCGTG

Experiments:
[1] = biological target: SARS-CoV-2 spike S1 subunit (SARS-CoV-2 (wild type), UniProt P0DTC2 16-685); details: protein: commercial; tags: His
Human alpha-thrombin = Human alpha-thrombin (human, UniProt P00734;P00734 315-363;364-622)
[2] = biological target: SARS-CoV-2 spike S1 subunit (SARS-CoV-2 (wild type), UniProt P0DTC2 16-685); details: protein: commercial; tags: His; remark: listed apart in the source
HCoV-229E RBD = HCoV-229E RBD (HCoV-229E, UniProt P15423 293-435); test: dot blot (filter binding); 50 nM protein; details: protein: recombinant; tags: C-terminal His; hairpin
SARS-CoV-2 spike RBD = SARS-CoV-2 spike RBD (SARS-CoV-2, UniProt P0DTC2 319-541); details: protein: commercial
[3] = biological target: SARS-CoV-1 full spike protein (SARS-CoV-1, UniProt P59594 14-1195); details: protein: commercial; chain copies: 3; label: 5'-32P; hairpin
SARS-CoV-1 RBD = SARS-CoV-1 RBD (SARS-CoV-1, UniProt P59594 306-527); details: protein: recombinant; tags: C-terminal His; label: 5'-32P; hairpin
MERS-CoV RBD = MERS-CoV RBD (MERS-CoV, UniProt K9N5Q8 367-588); details: protein: recombinant; tags: C-terminal His; label: 5'-32P; hairpin
Chain of MERS-CoV RBD (K9N5Q8 367-588): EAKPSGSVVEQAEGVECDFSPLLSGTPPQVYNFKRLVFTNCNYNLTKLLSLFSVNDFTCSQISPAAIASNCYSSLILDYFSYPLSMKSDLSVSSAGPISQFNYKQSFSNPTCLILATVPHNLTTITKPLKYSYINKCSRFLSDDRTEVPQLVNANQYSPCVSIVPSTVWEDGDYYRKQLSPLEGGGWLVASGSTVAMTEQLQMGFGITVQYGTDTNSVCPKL

Chain of HCoV-229E RBD (P15423 293-435): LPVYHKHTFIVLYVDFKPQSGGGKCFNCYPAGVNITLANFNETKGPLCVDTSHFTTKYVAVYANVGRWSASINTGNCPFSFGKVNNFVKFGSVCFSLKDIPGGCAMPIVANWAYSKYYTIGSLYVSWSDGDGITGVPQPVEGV

Row | Binder | Kd [1] | also measured
1 | ACGGGTTTGGCGTCGGGCCTGGCGGGGGGATAGTGCGGT (structured_DNA) [MSA5-T2] | 10.1 nM | 
2 | B1 | 27.6 ± 0.6 nM | 
3 | B2 | 16.2 ± 2.3 nM | 
4 | CCGGTTAATTTATGCTCTACCCGTCCACCTACCGG (structured_DNA) [MSA1-T4] |  | fold Kd increase [1]: 36 fold Kd increase vs MSA1-T3
5 | CTTCCACGGGTTTGGCGTCGGGCCTGGCGGGGGGATAGTGCGGTGGAAG (structured_DNA) [MSA5-T4] | 6.3 nM | 
6 | TCCACGGCGTCGGGCCTGGCGGGGGGATAGTGCGGTGGA (structured_DNA) [MSA5-T7] | 22.8 nM | 
7 | B3 | 1.9 ± 0.1 nM | 
8 | B4 | 134 ± 21.3 nM | 
9 | TTCCGGTTAATTTATGCTCTACCCGTCCACCTACCGGAA (structured_DNA) [MSA1-T2] |  | binding result [1]: binds
10 | B5 |  | binding result (Human alpha-thrombin): no binding; Kd [2]: 1.8 ± 0.4 nM; binding result (HCoV-229E RBD): no binding
11 | B6 | 37.4 ± 1.6 nM | 
12 | CTCCACGGGTTTGGCGTCGGGCCTGGCGGGGGGATAGTGCGGTGGAG (structured_DNA) [MSA5-T3] | 7.3 nM | 
13 | ACAGCGTCTGGTTGGTTTGGTTGGATCTTCGATCGCTGT (structured_DNA) [MSA3-T2] | 1.9 nM | 
14 | B7 | 23 ± 1 nM | 
15 | TCCACGGGTTTGGCGTCGGGCCTGGCGGGGGGATAGTGCGGTGGA (structured_DNA) [MSA5-T1] | 8.4 nM | 
16 | B8 | 9.2 ± 0.2 nM | 
17 | TCCACGGGTTTGCTGGCGGGGGGATAGTGCGGTGGA (structured_DNA) [MSA5-T6] | 264 nM | 
18 | TCCGGTTAATTTATGCTCTACCCGTCCACCTACCGGA (structured_DNA) [MSA1-T3] | 3.1 nM | 
19 | B9 | 2.7 ± 0.2 nM | binding result (Human alpha-thrombin): no binding; Kd (SARS-CoV-2 spike RBD): 4 ± 0.6 nM; binding result (HCoV-229E RBD): no binding; binding result [3]: no binding; binding result (SARS-CoV-1 RBD): no binding; binding result (MERS-CoV RBD): no binding
20 | B10 | 76.2 ± 10.5 nM | 
